B1: Gigaxonin (Homo sapiens), Q9H2C0 (parent)
chain: MAEGSAVSDPQHAARLLRALSSFREESRFCDAHLVLDGEEIPVQKNILAAASPYIRTKLNYNPPKDDGSTYKIELEGISVMVMREILDYIFSGQIRLNEDTIQDVVQAADLLLLTDLKTLCCEFLEGCIAAENCIGIRDFALHYCLHHVHYLATEYLETHFRDVSSTEEFLELSPQKLKEVISLEKLNVGNERYVFEAVIRWIAHDTEIRKVHMKDVMSALWVSGLDSSYLREQMLNEPLVREIVKECSNIPLSQPQQGEAMLANFKPRGYSECIVTVGGEERVSRKPTAAMRCMCPLYDPNRQLWIELAPLSMPRINHGVLSAEGFLFVFGGQDENKQTLSSGEKYDPDANTWTALPPMNEARHNFGIVEIDGMLYILGGEDGEKELISMECYDIYSKTWTKQPDLTMVRKIGCYAAMKKKIYAMGGGSYGKLFESVECYDPRTQQWTAICPLKERRFGAVACGVAMELYVFGGVRSREDAQGSEMVTCKSEFYHDEFKRWIYLNDQNLCIPASSSFVYGAVPIGASIYVIGDLDTGTNYDYVREFKRSTGTWHHTKPLLPSDLRRTGCAALRIANCKLFRLQLQQGLFRIRVHSP

Variants of: B1
Conditions: with uba1_human UBA1, P22314
uba1_human UBA1, P22314, sequence (P22314 whole entry): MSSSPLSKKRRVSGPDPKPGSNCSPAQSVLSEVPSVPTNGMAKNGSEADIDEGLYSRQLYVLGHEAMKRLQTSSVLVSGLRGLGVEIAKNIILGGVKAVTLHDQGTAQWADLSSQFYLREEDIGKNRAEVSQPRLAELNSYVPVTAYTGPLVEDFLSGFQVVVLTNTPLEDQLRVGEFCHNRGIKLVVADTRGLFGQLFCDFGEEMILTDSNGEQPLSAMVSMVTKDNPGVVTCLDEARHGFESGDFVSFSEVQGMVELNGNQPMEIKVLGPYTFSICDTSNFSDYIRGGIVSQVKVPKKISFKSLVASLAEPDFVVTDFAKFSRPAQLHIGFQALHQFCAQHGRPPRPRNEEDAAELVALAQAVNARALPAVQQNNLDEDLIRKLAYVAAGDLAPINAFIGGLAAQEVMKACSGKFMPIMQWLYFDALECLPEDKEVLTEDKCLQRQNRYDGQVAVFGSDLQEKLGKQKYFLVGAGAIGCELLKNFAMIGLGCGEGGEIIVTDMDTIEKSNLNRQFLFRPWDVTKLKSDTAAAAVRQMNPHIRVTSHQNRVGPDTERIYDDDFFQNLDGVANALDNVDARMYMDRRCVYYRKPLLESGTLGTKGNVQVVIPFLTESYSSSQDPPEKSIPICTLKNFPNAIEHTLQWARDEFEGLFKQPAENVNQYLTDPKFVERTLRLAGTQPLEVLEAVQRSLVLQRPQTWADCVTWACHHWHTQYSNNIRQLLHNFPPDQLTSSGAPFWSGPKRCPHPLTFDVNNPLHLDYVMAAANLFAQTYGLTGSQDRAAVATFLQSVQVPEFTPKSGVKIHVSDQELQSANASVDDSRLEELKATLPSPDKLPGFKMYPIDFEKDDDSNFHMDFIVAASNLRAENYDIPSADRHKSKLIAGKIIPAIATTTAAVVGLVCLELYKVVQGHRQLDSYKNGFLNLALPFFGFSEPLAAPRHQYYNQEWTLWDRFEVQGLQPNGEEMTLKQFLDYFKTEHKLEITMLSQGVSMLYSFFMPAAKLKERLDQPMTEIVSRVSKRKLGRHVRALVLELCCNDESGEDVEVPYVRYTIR

Variant	effect of a mutation on the interaction
MAEGSAVSDPQHAARLLRALSSFREESRFCDAHLVLDGEEIPVQKNILAAASPYIRTKLNYNPPKDDGSTYKIELEGISVMFMREILDYIFSGQIRLNEDTIQDVVQAADLLLLTDLKTLCCEFLEGCIAAENCIGIRDFALHYCLHHVHYLATEYLETHFRDVSSTEEFLELSPQKLKEVISLEKLNVGNERYVFEAVIRWIAHDTEIRKVHMKDVMSALWVSGLDSSYLREQMLNEPLVREIVKECSNIPLSQPQQGEAMLANFKPRGYSECIVTVGGEERVSRKPTAAMRCMCPLYDPNRQLWIELAPLSMPRINHGVLSAEGFLFVFGGQDENKQTLSSGEKYDPDANTWTALPPMNEARHNFGIVEIDGMLYILGGEDGEKELISMECYDIYSKTWTKQPDLTMVRKIGCYAAMKKKIYAMGGGSYGKLFESVECYDPRTQQWTAICPLKERRFGAVACGVAMELYVFGGVRSREDAQGSEMVTCKSEFYHDEFKRWIYLNDQNLCIPASSSFVYGAVPIGASIYVIGDLDTGTNYDYVREFKRSTGTWHHTKPLLPSDLRRTGCAALRIANCKLFRLQLQQGLFRIRVHSP [V82F]	decreasing interaction

Variants of: B1
Conditions: with uba1_rat Uba1, Q5U300
uba1_rat Uba1, Q5U300, sequence (Q5U300 whole entry): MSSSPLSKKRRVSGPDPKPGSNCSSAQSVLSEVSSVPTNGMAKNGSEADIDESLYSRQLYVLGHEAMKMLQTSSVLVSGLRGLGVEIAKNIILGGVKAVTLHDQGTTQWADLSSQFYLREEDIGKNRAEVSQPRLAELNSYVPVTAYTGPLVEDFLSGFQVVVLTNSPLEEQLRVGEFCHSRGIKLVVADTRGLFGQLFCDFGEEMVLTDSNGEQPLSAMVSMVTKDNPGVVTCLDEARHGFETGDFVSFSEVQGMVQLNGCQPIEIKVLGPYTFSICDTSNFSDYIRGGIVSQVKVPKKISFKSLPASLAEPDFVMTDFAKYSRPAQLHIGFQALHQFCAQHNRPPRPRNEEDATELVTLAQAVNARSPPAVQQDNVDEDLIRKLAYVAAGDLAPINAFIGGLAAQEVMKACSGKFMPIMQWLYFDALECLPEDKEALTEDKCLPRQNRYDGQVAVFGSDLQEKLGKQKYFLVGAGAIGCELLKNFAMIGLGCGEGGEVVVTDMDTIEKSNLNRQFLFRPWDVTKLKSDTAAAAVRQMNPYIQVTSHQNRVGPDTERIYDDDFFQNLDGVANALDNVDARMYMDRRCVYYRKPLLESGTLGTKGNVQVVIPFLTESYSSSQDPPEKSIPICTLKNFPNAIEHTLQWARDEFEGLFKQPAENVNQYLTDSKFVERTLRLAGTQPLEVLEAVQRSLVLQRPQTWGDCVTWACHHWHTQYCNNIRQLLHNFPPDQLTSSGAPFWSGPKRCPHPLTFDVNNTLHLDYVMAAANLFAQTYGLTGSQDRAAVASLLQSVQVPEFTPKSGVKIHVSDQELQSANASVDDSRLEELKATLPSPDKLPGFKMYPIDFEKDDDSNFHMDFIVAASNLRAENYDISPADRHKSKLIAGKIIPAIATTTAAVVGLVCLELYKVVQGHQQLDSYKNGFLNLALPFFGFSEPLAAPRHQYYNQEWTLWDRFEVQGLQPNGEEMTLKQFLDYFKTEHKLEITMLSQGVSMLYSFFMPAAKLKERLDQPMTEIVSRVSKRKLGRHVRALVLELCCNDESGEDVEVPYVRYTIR

Variant	effect of a mutation on the interaction
MAEGSAVSDPQHAARLLRALSSFREESRFCDAHLVLDGEEIPVQKNILAAASPYIRTKLNYNPPKDDGSTYKIELEGISVMFMREILDYIFSGQIRLNEDTIQDVVQAADLLLLTDLKTLCCEFLEGCIAAENCIGIRDFALHYCLHHVHYLATEYLETHFRDVSSTEEFLELSPQKLKEVISLEKLNVGNERYVFEAVIRWIAHDTEIRKVHMKDVMSALWVSGLDSSYLREQMLNEPLVREIVKECSNIPLSQPQQGEAMLANFKPRGYSECIVTVGGEERVSRKPTAAMRCMCPLYDPNRQLWIELAPLSMPRINHGVLSAEGFLFVFGGQDENKQTLSSGEKYDPDANTWTALPPMNEARHNFGIVEIDGMLYILGGEDGEKELISMECYDIYSKTWTKQPDLTMVRKIGCYAAMKKKIYAMGGGSYGKLFESVECYDPRTQQWTAICPLKERRFGAVACGVAMELYVFGGVRSREDAQGSEMVTCKSEFYHDEFKRWIYLNDQNLCIPASSSFVYGAVPIGASIYVIGDLDTGTNYDYVREFKRSTGTWHHTKPLLPSDLRRTGCAALRIANCKLFRLQLQQGLFRIRVHSP [V82F]	decreasing interaction

Source: IntAct's records for PubMed 16227972
